Columns and labels:
[1] = tested on: MCF-7 cells; experiment: Adhesion to MCF-7 WT monolayers blocked with rBST-2; assay type: cell-based, human
Protocol: (§1) FIG. 22. […] PKH67Green-labeled shControl (shCTL)- or sh413 (shBST-2)-expressing (A) 4T1 or (B) E0771 cells were allowed to adhere to plates that were coated with 0, 20 or 50 ng of recombinant BST-2 (rBST-2) and fluorescence assessed with a plate reader. (C) Representative confocal images of cells attached to wells coated with increasing concentrations of rBST-2. (D) Quantification of PKH67Green-labeled MCF-7 cells expressing Vector, WT or C3A BST-2 adhered to plates that were coated with 0, 20 or 50 ng of rBST-2. […] Cells that adhered to WT MCF-7 monolayers were quantified and represented as relative fluorescence intensity. Each data point corresponds to six different wells analyzed. Error bars correspond to SEM. Significance was taken at P<0.05* and P<0.01**. n.s=not significant.

[2] = tested on: BST-2; experiment: Adhesion of cancer cells to plates coated with recombinant BST-2; assay type: cell-based; conditions: plates coated with 0, 20 or 50 ng rBST-2
Protocol: as §1
Low BST-2 expressing human breast cancer cells (MCF-7) stably expressing WT BST-2 (WT) efficiently binds BST-2 ECD while similar cells stably expressing dimerization mutant BST-2 (C3A) are defective in binding BST-2 ECD. Treatment of BST-2-expressing breast cancer cells with BST-2 ECD blocks cancer cell-to-cancer clustering (FIG. 22).

B1: rBST-2: recombinant extracellular domain (ECD) of BST-2 (protein, UniProt Q10589 49-161, looked up)
extracellular domain: NSEACRDGLRAVMECRNVTHLLQQELTEAQKGFQDVEAQAATCNHTVMALMASLDAEKAQGQKKVEELEGEITTLNHKLQDASAEVERLRRENQVLSVRIADKKYYPSSQDSS
modifications: extracellular domain
Question: How did the “BST-2-mediated adhesion of breast cancer cells” value [1] turn out when B1 was run?
Answer: prevents BST-2-mediated adhesion of breast cancer cells

Question: And the “binding to BST-2” value [2]?
Answer: binds to BST-2 in vitro
